Here are results for eight molecules from patent US20140271635A1 (Novartis, published 2014).

Substitutions are numbered along the chain they refer to.

T1: full length human CD19 expressed on mouse preB cell line 300.19 (300.19-hsCD19FL) (human, UniProt P15391 20-556)
T1 construct: whole, on cells; also called hCD19; 300.CD19
T1 sequence (looked up): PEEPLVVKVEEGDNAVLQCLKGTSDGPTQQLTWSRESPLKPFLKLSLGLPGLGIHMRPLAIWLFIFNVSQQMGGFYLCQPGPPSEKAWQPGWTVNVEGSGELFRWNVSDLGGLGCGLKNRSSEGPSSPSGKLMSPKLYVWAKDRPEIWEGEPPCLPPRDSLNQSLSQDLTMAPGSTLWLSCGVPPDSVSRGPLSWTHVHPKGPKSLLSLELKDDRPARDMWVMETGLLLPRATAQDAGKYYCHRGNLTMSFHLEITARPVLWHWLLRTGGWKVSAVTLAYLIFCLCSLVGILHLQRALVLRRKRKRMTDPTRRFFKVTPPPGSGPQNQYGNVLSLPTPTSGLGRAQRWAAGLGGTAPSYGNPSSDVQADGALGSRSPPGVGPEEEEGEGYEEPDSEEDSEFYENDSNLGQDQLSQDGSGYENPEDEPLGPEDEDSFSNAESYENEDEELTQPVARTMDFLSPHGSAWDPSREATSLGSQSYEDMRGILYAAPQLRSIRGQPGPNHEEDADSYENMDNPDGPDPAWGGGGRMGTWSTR

B1: 99789 CAR5 - Soluble scFv (scFv)
scFv: EIVMTQSPATLSLSPGERATLSCRASQDISKYLNWYQQKPGQAPRLLIYHTSRLHSGIPARFSGSGSGTDYTLTISSLQPEDFAVYFCQQGNTLPYTFGQGTKLEIKGGGGSGGGGSGGGGSGGGGSQVQLQESGPGLVKPSETLSLTCTVSGVSLPDYGVSWIRQPPGKGLEWIGVIWGSETTYYSSSLKSRVTISKDNSKNQVSLKLSSVTAADTAVYYCAKHYYYGGSYAMDYWGQGTLVTVSSHHHHHHHH
notes: Built here without the leader
B2: 99790 CAR6 - Soluble scFv (scFv)
scFv: B1 scFv with S187Q
notes: Built here without the leader
B3: 103101 CAR1 Soluble scFv (scFv)
scFv: EIVMTQSPATLSLSPGERATLSCRASQDISKYLNWYQQKPGQAPRLLIYHTSRLHSGIPARFSGSGSGTDYTLTISSLQPEDFAVYFCQQGNTLPYTFGQGTKLEIKGGGGSGGGGSGGGGSQVQLQESGPGLVKPSETLSLTCTVSGVSLPDYGVSWIRQPPGKGLEWIGVIWGSETTYYSSSLKSRVTISKDNSKNQVSLKLSSVTAADTAVYYCAKHYYYGGSYAMDYWGQGTLVTVSSHHHHHHHH
notes: Built here without the leader
B4: 103102 CAR2 - Soluble scFv (scFv)
scFv: B3 scFv with S182Q
notes: Built here without the leader
B5: 103104 CAR 3 - Soluble scFv (scFv)
scFv: QVQLQESGPGLVKPSETLSLTCTVSGVSLPDYGVSWIRQPPGKGLEWIGVIWGSETTYYSSSLKSRVTISKDNSKNQVSLKLSSVTAADTAVYYCAKHYYYGGSYAMDYWGQGTLVTVSSGGGGSGGGGSGGGGSEIVMTQSPATLSLSPGERATLSCRASQDISKYLNWYQQKPGQAPRLLIYHTSRLHSGIPARFSGSGSGTDYTLTISSLQPEDFAVYFCQQGNTLPYTFGQGTKLEIKHHHHHHHH
notes: Built here without the leader
B6: 103106 CAR4 - Soluble scFv (scFv)
scFv: B5 scFv with S60Q
notes: Built here without the leader
B7: 100796 CAR7 - Soluble scFv (scFv)
scFv: QVQLQESGPGLVKPSETLSLTCTVSGVSLPDYGVSWIRQPPGKGLEWIGVIWGSETTYYSSSLKSRVTISKDNSKNQVSLKLSSVTAADTAVYYCAKHYYYGGSYAMDYWGQGTLVTVSSGGGGSGGGGSGGGGSGGGGSEIVMTQSPATLSLSPGERATLSCRASQDISKYLNWYQQKPGQAPRLLIYHTSRLHSGIPARFSGSGSGTDYTLTISSLQPEDFAVYFCQQGNTLPYTFGQGTKLEIKHHHHHHHH
notes: Built here without the leader
B8: 100798 CAR8 - Soluble scFv (scFv)
scFv: B7 scFv with S60Q
notes: Built here without the leader

In the assay the target is T1, full length human CD19 expressed on …. The assay is described as follows: flow cytometry on mouse 300.19 cells expressing hCD19, His-tagged scFv. The protocol:
Mouse cell line 300.CD19 were grown in RPMI 1640 with 0.5 mg/ml Zeocin. Around 5e5 cells/per well were transferred to the BD Falcon 96 well plate. The cells were spin down at 900 rpm (Sorval Legend XT centrifuge) for 3 minutes. The supernatant were removed. Anti-CD19 scFv protein samples were diluted in DPBS with 5% FBS. The samples were added into the wells, mixed well with the cells and incubated for 1 hour. The cells were washed twice in the DPBS with 5% FBS. The cells were incubated with antipoly His PE (R&D) for 1 hour, washed twice before FACS analysis (LSRII from BD Biosciences).
Turning to B1, the binding result is recorded as “binds”.
The entry for B2 is “binds”; for B3 it is “binds”.
The entry for B4 is “binds”; for B5 it is “binds”.
The entry for B6 is “binds”; for B7 it is “binds”; for B8 it is “binds”.
